Here are results for one substance from PMC8568920, “Serum apolipoprotein A-I potentiates the therapeutic efficacy of lysocin E against Staphylococcus aureus” (Nature Communications, 2021).

A word on the Kd: it is the free concentration of one partner at which half of the binding sites on the other are occupied at equilibrium, for simple one-to-one binding.

The target of assay [1] is biotinylated lysocin E derivative, natural type. Nature of the assay: BLI; BLItz system, room temperature; biotinylated ligand (0.1 mg/ml) immobilised on a streptavidin biosensor; PBS with 0.05% Tween-20; 300 s association and 300 s dissociation.
Assay [2] concerns the target biotinylated lysocin E derivative, Bu-type. The description is as above.

“recombinant human apolipoprotein A-I, wild type (from UniProt P02647 19-267) (natural protein)”: the dissociation constant (Kd) in assay [1] was determined as 3.6 µM; in assay [2], 3.4 µM.
